Experimental data: paper PMC7496328

B1: unnamed (parent)
chain: MFGLGHNSKEISMSHIGTKFILAEKFTFDPLSNTLIDKEDSEEIIRLGSNESRILWLLAQRPNEVISRNDLHDFVWREQGFEVDDSSLTQAISTLRKMLKDSTKSPQYVKTVPKRGYQLIARVETVEEEMARESEAAHDISQPESVNEYAESSSVPSSATVVNTPQPANVVTNKSAPNLGNRLLILIAVLLPLAVLLLTNPSQTSFKPLTVVDGVAVNMPNNHPDLSNWLPSIELCVKKYNEKHTGGLKPIEVIATGGQNNQLTLNYIHSPEVSGENITLRIVANPNDAIKVCE

Variants of: B1
Conditions: with partner chain of the complex shown; read off a plot

| Variant | response [%] |
| --- | --- |
| MFGLGHNSKEISMSHIGTKFILAEKFTFDPLSNTLIDKEDSEEIIRLGSNESRILWLLAQRPNEVISRNDLHDFVRREQGFEVDDSSLTQAISTLRKMLKDSTKSPQYVKTVPKRGYQLIARVETVEEEMARESEAAHDISQPESVNEYAESSSVPSSATVVNTPQPANVVTNKSAPNLGNRLLILIAVLLPLAVLLLTNPSQTSFKPLTVVDGVAVNMPNNHPDLSNWLPSIELCVKKYNEKHTGGLKPIEVIATGGQNNQLTLNYIHSPEVSGENITLRIVANPNDAIKVSE [chain 1 C293S W76R] | 5 |
| MFGLGHNSKEISMSHIGTKFILAEKFTFDPLSNTLIDKEDSEEIIRLGSNESRILWLLAQRPNEVISRNDLHDFVWREQGFEVDDSSLTQAISTLRKMLKDSTKSPQYVKTVPKRGYQLIARVETVEEEMARESEAAHDISQPESVNEYAESSSVPSSATVVNTPQPANVVTNKSAPNLGNRLLILIAVLLPLAVLLLTNPSQTSFKPLTVVDGVAVNMPNNHPDLSNWLPSIELCVKKYNEKHTGGLKPIEVIATGGQNNQLTLNYIHSPEVSGENITLRIVANPNDAIKVSE [chain 1 C293S] | 45 |
